In patent US20250066508A1 (SHENYANG SUNSHINE PHARMACEUTICAL, published 2025):

T1: MASP3-CCP1/2-SP-RQSA (human)
T1 construct: also called human MASP-3; human MASP3-CCP1/2-SP-RQSA
T1 chain: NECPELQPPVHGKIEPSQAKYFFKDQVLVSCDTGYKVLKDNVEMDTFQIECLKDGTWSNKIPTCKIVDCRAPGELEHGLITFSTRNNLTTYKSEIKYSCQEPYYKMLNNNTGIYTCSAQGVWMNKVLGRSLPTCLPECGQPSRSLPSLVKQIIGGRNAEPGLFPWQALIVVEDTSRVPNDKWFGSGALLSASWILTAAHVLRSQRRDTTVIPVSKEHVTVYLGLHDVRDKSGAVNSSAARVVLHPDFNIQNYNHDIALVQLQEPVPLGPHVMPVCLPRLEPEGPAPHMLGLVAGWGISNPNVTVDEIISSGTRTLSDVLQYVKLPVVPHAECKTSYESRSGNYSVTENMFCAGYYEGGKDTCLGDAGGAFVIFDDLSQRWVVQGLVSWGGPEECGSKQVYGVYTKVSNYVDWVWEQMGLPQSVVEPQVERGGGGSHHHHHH

T2: MASP1-CCP1/2-SP-RQSA (human, UniProt P48740 299-699)
T2 construct: also called human MASP-1; human MASP1-CCP1/2-SP-RQSA
T2 chain: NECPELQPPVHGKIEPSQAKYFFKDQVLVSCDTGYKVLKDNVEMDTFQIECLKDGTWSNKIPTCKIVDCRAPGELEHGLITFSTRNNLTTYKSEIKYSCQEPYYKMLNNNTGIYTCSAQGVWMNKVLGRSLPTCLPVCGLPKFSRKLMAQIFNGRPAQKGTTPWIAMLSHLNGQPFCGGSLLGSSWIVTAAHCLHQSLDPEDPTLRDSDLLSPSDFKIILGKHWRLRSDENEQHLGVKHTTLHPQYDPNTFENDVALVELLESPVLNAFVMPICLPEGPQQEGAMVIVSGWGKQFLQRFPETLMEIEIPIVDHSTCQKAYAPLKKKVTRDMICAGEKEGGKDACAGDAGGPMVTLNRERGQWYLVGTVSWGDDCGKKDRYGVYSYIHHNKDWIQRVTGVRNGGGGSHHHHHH

B1: Narsoplimab (antibody, human IgG4 S228P, lambda, V domains shown)
VH: QVTLKESGPVLVKPTETLTLTCTVSGFSLSRGKMGVSWIRQPPGKALEWLAHIFSSDEKSYRTSLKSRLTISKDTSKNQVVLTMTNMDPVDTATYYCARIRRGGIDYWGQGTLVTVSS
VL: QPVLTQPPSLSVSPGQTASITCSGEKLGDKYAYWYQQKPGQSPVLVMYQDKQRPSGIPERFSGSNSGNTATLTISGTQAMDEADYYCQAWDSSTAVFGGGTKLTVLG
notes: also called positive control antibody; Control Narsoplimab
B2: 169-IgG4 (antibody, V domains shown)
VH: QVQLQESGPGLVKPSETLSLTCTVSGGSISSSSYYWGWIRQPPGKGLEWIGSIYYSGSTYYNPSLKSRVTISVDTSKNQFSLKLSSVTAADTAVYYCARDRRGRFDPWGQGTMVTVSS
VL: SYELMQPPSMSVSPGQTASITCSGDKLGDIYAYWYQQKPGQSPVLVIYQDNKRPSGIPERFSGSNSGNTATLTISGTQAMDEADYYCQAWESSTGVFGGGTKLTVLG
notes: expressed in HEK293F; also called preferred antibody

Assays:
[1] = molecular target: Mouse MASP2-CCP1/2-SP-RQSA (mouse, UniProt Q91WP0 298-685); assay: ELISA, antigen coated 20 ng/well
Method: (§1) The enzyme-linked immunosorbent assay (ELISA) method used in the following examples is described as follows: the microplate was coated with the corresponding recombinant protein, and PBST containing 1% bovine serum albumin (PBST is phosphate buffer containing 0.05% Tween-20) was used to block the microplate. The antibody to be tested was serially diluted, then transferred to the above-mentioned microplate coated with recombinant protein, followed by incubation at room temperature for half an hour. After washing the plate, appropriately diluted HRP (Horseradish Peroxidase)-labeled goat anti-human antibody (Fc specific, purchased from Sigma) was added, followed by incubation at room temperature for half an hour. After washing the plate, 100 μl of chromogenic solution with TMB (3,3′,5,5′-Tetramethylbenzidine) was added as substrate to each well, followed by incubation at room temperature for 1 to 5 minutes. 50 μl stop solution (2M H₂SO₄) was added to stop the reaction. OD450 was read by a plate reader (SpectraMax 190). GraphPad Prism7 was used for graphing and data analyzing, and EC₅₀/IC₅₀ was calculated.

Rat MASP2-CCP1/2-SP-RQSA = Rat MASP2-CCP1/2-SP-RQSA (rat, UniProt Q9JJS8 298-685); assay: ELISA, antigen coated 20 ng/well
Method: as §1

MASP3-CCP1/2-SP-RQSA = molecular target: T1, MASP3-CCP1/2-SP-RQSA; assay: ELISA, plate coated with MASP3-CCP1/2-SP-RQSA (20 ng/well), HRP goat anti-human Fc, OD450
Method: as §1

[2] = molecular target: T3, Rhesus MASP2-CCP1/2-SP-RQSA (rhesus macaque, UniProt O00187 298-686 (human entry), limits assumed); assay: ELISA, antigen coated 20 ng/well
T3 construct: also called rhesus macaque MASP-2
Method: as §1

MASP2-CCP1/2 = molecular target: T4, MASP2-CCP1/2 (human, UniProt O00187 298-443); assay: ELISA, antigen coated 20 ng/well
T4 construct: also called CCP1/2 domain of MASP-2
Method: as §1

MASP2-CCP1/2-SP-RQ [3] = molecular target: T5, MASP2-CCP1/2-SP-RQ (human, UniProt O00187 298-686); assay: ELISA, antigen coated 20 ng/well
Method: as §1
(§2) The smaller the EC₅₀ and the larger the Top, the stronger the binding effect is.

MASP2-CCP1/2-SP-RKSA [4] = molecular target: T6, MASP2-CCP1/2-SP-RKSA (human, UniProt O00187 298-686); assay: ELISA, antigen coated 20 ng/well
Method: as §1, §2

MASP1-CCP1/2-SP-RQSA = molecular target: T2, MASP1-CCP1/2-SP-RQSA; assay: ELISA, plate coated with MASP1-CCP1/2-SP-RQSA (20 ng/well), HRP goat anti-human Fc, OD450
Method: as §1

Human MASP-2 = Human MASP-2 (human, UniProt O00187 16-686); assay: cell-based or functional assay
MASP2-CCP1/2-SP-RQ [5] = molecular target: T5, MASP2-CCP1/2-SP-RQ; assay: SPR, Biacore 8K, antibody captured on Protein A/G chip, antigen as analyte
Description: (§3) Here, the affinity between the above antibodies and MASP2-CCP1/2-SP-RKSA or MASP2-CCP1/2-SP-RQ was detected by Biacore 8K (GE healthcare). On Biacore 8K, a chip conjugated with Protein A/G was used to capture various antibodies, and then the above two recombinations were used as analytes (Analyte) to flow through the chip to obtain the binding-dissociation curve, and regeneration buffer was used to regenerate the chip and proceed to the next cycle; Biacore 8K Evaluation Software was used to analyze the data.

MASP2-CCP1/2-SP-RKSA [6] = molecular target: T6, MASP2-CCP1/2-SP-RKSA; assay: as above
Description: as §3

MASP2-SP-RQSA = molecular target: T7, MASP2-SP-RQSA (human, UniProt O00187 445-686, limits assumed); assay: ELISA, plate coated with MASP2-SP-RQSA (20 ng/well), HRP goat anti-human Fc, OD450
T7 construct: also called SP domain of MASP-2
Method: as §1

T5 sequence (O00187 other isoform, or with tags, fused parts or gaps limits assumed): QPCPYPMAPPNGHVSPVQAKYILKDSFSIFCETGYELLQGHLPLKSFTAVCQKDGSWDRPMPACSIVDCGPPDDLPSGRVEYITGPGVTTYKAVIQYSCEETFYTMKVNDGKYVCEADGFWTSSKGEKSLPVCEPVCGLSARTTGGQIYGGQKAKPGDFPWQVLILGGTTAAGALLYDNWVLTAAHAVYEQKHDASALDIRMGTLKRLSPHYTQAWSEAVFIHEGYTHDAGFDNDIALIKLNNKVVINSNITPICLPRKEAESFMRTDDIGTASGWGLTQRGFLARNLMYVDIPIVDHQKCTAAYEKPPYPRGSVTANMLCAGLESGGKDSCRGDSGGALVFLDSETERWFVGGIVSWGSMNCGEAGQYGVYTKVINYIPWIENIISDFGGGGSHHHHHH
T6 sequence (O00187 other isoform, or with tags, fused parts or gaps limits assumed): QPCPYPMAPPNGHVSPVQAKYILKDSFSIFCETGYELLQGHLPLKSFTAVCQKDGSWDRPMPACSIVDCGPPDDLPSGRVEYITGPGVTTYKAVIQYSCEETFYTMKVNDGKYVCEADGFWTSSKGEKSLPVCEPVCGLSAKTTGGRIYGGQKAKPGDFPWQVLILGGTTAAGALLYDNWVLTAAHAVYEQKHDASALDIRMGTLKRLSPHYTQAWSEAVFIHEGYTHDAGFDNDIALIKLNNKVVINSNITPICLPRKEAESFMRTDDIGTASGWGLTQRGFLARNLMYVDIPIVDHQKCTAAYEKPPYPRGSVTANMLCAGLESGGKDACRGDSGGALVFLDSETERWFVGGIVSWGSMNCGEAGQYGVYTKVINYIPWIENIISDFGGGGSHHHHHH
Chain of Rat MASP2-CCP1/2-SP-RQSA (Q9JJS8 other isoform, or with tags, fused parts or gaps limits assumed): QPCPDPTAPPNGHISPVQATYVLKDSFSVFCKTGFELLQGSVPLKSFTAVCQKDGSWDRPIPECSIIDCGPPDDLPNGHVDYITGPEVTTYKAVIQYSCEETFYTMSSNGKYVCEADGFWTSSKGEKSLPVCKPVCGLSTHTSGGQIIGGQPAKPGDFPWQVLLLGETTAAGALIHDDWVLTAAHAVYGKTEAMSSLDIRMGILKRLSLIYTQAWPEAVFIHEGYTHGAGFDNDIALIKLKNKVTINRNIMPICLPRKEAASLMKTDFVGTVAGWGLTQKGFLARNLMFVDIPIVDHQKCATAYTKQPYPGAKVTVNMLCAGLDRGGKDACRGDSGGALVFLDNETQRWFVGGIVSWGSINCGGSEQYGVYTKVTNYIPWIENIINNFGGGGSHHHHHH
Chain of Human MASP-2 (O00187 16-686 limits assumed): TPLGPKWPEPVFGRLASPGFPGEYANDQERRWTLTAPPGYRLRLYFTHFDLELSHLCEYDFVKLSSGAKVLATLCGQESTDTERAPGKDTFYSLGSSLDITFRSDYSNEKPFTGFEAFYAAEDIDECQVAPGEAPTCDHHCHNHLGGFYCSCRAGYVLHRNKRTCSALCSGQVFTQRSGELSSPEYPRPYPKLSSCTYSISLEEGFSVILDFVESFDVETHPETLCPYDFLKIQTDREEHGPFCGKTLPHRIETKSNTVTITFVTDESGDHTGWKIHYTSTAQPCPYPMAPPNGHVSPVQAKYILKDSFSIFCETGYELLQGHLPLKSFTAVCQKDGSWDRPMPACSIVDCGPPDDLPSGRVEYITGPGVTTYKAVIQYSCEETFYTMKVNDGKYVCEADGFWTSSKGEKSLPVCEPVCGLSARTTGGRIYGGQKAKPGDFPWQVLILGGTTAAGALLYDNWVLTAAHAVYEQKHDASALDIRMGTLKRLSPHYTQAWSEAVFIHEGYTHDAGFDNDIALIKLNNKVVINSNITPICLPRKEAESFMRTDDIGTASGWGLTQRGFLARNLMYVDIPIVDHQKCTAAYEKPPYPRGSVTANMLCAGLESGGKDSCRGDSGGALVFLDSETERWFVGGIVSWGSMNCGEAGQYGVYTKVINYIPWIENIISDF
Chain of Mouse MASP2-CCP1/2-SP-RQSA (Q91WP0 other isoform, or with tags, fused parts or gaps limits assumed): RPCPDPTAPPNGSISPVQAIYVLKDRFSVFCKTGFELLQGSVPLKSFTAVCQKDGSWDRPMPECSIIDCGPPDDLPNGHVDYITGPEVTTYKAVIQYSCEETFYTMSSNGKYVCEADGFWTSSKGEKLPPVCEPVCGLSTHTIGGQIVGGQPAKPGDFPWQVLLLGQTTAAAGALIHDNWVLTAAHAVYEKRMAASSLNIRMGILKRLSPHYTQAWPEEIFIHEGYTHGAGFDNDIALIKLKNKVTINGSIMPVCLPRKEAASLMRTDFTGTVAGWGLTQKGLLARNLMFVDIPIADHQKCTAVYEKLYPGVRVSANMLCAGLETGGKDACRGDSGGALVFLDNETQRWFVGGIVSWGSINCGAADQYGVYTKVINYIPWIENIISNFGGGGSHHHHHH
T4 sequence (O00187 other isoform, or with tags, fused parts or gaps limits assumed): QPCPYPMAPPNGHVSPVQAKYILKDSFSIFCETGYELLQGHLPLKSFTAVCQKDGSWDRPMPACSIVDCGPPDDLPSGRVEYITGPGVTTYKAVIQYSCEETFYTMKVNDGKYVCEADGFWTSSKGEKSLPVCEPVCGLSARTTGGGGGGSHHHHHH
T7 sequence (O00187 other isoform, or with tags, fused parts or gaps limits assumed): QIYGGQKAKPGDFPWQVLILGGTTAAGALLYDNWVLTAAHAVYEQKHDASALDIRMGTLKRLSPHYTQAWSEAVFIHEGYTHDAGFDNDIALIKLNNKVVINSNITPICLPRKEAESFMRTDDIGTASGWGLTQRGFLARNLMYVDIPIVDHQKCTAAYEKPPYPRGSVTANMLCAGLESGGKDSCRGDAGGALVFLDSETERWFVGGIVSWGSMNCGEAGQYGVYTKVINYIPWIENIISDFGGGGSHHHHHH
T3 sequence (O00187 other isoform, or with tags, fused parts or gaps limits assumed): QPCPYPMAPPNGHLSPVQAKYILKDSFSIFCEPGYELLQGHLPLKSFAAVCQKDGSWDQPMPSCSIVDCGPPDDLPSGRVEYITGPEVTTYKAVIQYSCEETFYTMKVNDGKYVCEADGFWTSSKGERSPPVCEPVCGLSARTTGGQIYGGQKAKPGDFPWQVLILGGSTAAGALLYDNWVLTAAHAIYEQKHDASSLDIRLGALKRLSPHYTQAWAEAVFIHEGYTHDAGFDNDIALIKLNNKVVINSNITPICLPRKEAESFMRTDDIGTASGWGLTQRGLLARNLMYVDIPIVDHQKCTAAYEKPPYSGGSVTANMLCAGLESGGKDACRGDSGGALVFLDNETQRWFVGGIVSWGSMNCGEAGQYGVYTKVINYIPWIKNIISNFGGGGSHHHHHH

Row | Binder | EC50 [1] [nM] | EC50 (Rat MASP2-CCP1/2-SP-RQSA) [nM] | binding result (MASP3-CCP1/2-SP-RQSA) | EC50 [2] [nM] | EC50 (MASP2-CCP1/2) [nM] | EC50 (MASP2-CCP1/2-SP-RQ [3]) [nM] | EC50 (MASP2-CCP1/2-SP-RKSA [4]) [nM] | binding result (MASP1-CCP1/2-SP-RQSA) | IC50 of C3 deposition on mannan-coated microplates (40 µg/ml mannan, 1% human plasma) (Human MASP-2) [nM] | IC50 of C3 deposition on mannan-coated microplates (100 µg/ml mannan, 1% human plasma) (Human MASP-2) [nM] | Kd (MASP2-CCP1/2-SP-RQ [5]) [nM] | koff (MASP2-CCP1/2-SP-RQ [5]) [s⁻¹] | kon (MASP2-CCP1/2-SP-RQ [5]) [M⁻¹ s⁻¹] | Kd (MASP2-CCP1/2-SP-RKSA [6]) [nM] | koff (MASP2-CCP1/2-SP-RKSA [6]) [s⁻¹] | kon (MASP2-CCP1/2-SP-RKSA [6]) [M⁻¹ s⁻¹] | binding result (MASP2-SP-RQSA)
1 | B1 | 0.169 | 0.455 | no binding (tested: 100 nM (Log(Ab nM) = 2)) | – | – | – | – | – | – | – | – | – | – | – | – | – | –
2 | B2 | 0.19 | 0.231 | no binding (tested: 100 nM (Log(Ab nM) = 2)) | 0.136 | 0.146 | 0.136 | 0.106 | no binding (tested: 100 nM (Log(Ab nM) = 2)) | 0.0888 | 0.0996 | 4.82 | 0.00361 | 750000 | 38.6 | 0.00382 | 99200 | no binding (tested: 100 nM (Log(Ab nM) = 2))
